The assay concerns the target EsxE-EsxF heterodimer (Mycobacterium tuberculosis) (UniProt P9WNH8). Put plainly: negative-stain electron microscopy.

For “EsxE-EsxF heterodimer (from UniProt P9WNH8 1-90; P9WNH6 1-103) (complex)”, the stoichiometry N – broadly, the number of molecules, sites or subunits per partner or assembly – worked out at 5.

The values above are taken from paper PMC7810871.
